This is an account of results in patent US12415868 (MINERVA BIOTECHNOLOGIES, dated 2025).

For assay [1], the target named is T1, recombinant human NME7AB (human, UniProt Q9Y5B8 92-376).
T1 construct: also called NME-AB; NME7 (in several passages)
T1 sequence: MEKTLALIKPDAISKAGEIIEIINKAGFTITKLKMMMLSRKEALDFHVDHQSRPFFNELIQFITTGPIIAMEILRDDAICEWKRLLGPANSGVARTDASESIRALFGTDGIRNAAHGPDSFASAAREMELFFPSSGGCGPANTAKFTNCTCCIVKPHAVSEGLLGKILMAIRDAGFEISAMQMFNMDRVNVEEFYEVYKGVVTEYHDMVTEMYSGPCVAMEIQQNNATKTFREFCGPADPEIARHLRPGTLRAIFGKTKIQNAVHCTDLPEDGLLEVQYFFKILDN
In words: ELISA, plate coated with recombinant NME7AB (FIG. 24). On the procedure:
The surface of the multi-well plate was coated with a recombinant $NME7AB$. Anti-$NME7AB$ antibodies were separately added to wells. Standard washes were performed and visualized by adding an HRP-conjugated secondary antibody. […] 7 of the 10 new anti-NME7 antibodies bound strongly to NME7$AB$. […] The surface of the multi-well plate was coated with a recombinant NME1-S120G dimers, which are also known to bind to the MUC1* extra cellular domain. Anti-NME7$AB$ antibodies were separately added to wells. Standard washes were performed and visualized by adding an HRP-conjugated secondary antibody.

For assay [2], the target named is T1, recombinant human NME7AB. In words: ELISA sandwich assay, HRP signal (FIG. 1A-1B). On the procedure: Example 3—ELISA Assay Showing NME7$AB$ Simultaneously Binds to Two MUC1* Extra Cellular Domain Peptides Results are shown in FIG. 1. The PSMGFR peptide bearing a C-terminal Cysteine (PSMGFR-Cys) was covalently coupled to BSA using Imject Maleimide activated BSA kit (Thermo Fisher). PSMGFR-Cys coupled BSA was diluted to 10 ug/mL in 0.1M carbonate/bicarbonate buffer pH 9.6 and 50 uL was added to each well of a 96 well plate. After overnight incubation at 4° C., the plate was washed twice with PBS-T and a 3% BSA solution was added to block remaining binding site on the well. After 1 h at RT the plate was washed twice with PBS-T and NME7, diluted in PBS-T+1% BSA, was added at different concentrations. After 1h at RT the plate was washed 3× with PBS-T and anti-NM23-H7 (B-9). Santa Cruz. […] After 1 h at RT the plate was washed 3× with PBS-T and binding of NME7 was measured at 415 nm using ABTS solution (Pierce).
After 1 h at RT the plate was washed 3× with PBS-T and His-Tagged PSMGFR peptide (PSMGFR-His) or biotinylated PSMGFR peptide (PSMGFR-biotin), diluted in PBS-T+1% BSA, was added at different concentration. […] After 1 h at RT the plate was washed 3× with PBS-T and binding of PSMGFR peptide to NME7 already bound to another PSMGFR peptide (which could not signal by anti-His antibody or by streptavidin) coupled BSA was measured at 415 nm using a ABTS solution (Pierce).

B1: anti-NME7 monoclonal antibody 8F9A5A1 (antibody, V domains shown)
VH: IQLVQSGPELKKPGETVKISCKASGYTFTNYGMNWVKQAPGKGLKWMGWINTYTGEPTYVDDFKGRFAFSLETSATTAYLQINNLKNEDTSTYFCARLRGIRPGPLAYWGQGTLVTVSA
VL: EILLTQSPAIIAASPGEKVTITCSASSSVSYMNWYQQKPGSSPKIWIYGISNLASGVPARFSGSGSGTSFSFTINSMEAEDVATYYCQQRSSYPPTFGGGTKLEIKR
notes: Mouse monoclonal
Take B1: in the assay with recombinant human NME7AB [1], the binding result is reported as “binds”.

B2: PSMGFR peptide (MUC1* extra cellular domain peptide) (peptide)
peptide: GTINVHDVETQFNQYKTEAASRYNLTISDVSVSDVPFPFSAQSGA
notes: For the other ELISAs only surface-immobilized peptide is stated; also called MUC1* peptide; FLR
Take B2: the binding result with recombinant human NME7AB [2] was “binds”.
